Tests used:
frem2_human FREM2 = frem2_human FREM2 (UniProt Q5SZK8)
frem1_human FREM1 = frem1_human FREM1 (UniProt Q5H8C1)

Chain of UniProt Q5SZK8 (Q5SZK8 whole entry): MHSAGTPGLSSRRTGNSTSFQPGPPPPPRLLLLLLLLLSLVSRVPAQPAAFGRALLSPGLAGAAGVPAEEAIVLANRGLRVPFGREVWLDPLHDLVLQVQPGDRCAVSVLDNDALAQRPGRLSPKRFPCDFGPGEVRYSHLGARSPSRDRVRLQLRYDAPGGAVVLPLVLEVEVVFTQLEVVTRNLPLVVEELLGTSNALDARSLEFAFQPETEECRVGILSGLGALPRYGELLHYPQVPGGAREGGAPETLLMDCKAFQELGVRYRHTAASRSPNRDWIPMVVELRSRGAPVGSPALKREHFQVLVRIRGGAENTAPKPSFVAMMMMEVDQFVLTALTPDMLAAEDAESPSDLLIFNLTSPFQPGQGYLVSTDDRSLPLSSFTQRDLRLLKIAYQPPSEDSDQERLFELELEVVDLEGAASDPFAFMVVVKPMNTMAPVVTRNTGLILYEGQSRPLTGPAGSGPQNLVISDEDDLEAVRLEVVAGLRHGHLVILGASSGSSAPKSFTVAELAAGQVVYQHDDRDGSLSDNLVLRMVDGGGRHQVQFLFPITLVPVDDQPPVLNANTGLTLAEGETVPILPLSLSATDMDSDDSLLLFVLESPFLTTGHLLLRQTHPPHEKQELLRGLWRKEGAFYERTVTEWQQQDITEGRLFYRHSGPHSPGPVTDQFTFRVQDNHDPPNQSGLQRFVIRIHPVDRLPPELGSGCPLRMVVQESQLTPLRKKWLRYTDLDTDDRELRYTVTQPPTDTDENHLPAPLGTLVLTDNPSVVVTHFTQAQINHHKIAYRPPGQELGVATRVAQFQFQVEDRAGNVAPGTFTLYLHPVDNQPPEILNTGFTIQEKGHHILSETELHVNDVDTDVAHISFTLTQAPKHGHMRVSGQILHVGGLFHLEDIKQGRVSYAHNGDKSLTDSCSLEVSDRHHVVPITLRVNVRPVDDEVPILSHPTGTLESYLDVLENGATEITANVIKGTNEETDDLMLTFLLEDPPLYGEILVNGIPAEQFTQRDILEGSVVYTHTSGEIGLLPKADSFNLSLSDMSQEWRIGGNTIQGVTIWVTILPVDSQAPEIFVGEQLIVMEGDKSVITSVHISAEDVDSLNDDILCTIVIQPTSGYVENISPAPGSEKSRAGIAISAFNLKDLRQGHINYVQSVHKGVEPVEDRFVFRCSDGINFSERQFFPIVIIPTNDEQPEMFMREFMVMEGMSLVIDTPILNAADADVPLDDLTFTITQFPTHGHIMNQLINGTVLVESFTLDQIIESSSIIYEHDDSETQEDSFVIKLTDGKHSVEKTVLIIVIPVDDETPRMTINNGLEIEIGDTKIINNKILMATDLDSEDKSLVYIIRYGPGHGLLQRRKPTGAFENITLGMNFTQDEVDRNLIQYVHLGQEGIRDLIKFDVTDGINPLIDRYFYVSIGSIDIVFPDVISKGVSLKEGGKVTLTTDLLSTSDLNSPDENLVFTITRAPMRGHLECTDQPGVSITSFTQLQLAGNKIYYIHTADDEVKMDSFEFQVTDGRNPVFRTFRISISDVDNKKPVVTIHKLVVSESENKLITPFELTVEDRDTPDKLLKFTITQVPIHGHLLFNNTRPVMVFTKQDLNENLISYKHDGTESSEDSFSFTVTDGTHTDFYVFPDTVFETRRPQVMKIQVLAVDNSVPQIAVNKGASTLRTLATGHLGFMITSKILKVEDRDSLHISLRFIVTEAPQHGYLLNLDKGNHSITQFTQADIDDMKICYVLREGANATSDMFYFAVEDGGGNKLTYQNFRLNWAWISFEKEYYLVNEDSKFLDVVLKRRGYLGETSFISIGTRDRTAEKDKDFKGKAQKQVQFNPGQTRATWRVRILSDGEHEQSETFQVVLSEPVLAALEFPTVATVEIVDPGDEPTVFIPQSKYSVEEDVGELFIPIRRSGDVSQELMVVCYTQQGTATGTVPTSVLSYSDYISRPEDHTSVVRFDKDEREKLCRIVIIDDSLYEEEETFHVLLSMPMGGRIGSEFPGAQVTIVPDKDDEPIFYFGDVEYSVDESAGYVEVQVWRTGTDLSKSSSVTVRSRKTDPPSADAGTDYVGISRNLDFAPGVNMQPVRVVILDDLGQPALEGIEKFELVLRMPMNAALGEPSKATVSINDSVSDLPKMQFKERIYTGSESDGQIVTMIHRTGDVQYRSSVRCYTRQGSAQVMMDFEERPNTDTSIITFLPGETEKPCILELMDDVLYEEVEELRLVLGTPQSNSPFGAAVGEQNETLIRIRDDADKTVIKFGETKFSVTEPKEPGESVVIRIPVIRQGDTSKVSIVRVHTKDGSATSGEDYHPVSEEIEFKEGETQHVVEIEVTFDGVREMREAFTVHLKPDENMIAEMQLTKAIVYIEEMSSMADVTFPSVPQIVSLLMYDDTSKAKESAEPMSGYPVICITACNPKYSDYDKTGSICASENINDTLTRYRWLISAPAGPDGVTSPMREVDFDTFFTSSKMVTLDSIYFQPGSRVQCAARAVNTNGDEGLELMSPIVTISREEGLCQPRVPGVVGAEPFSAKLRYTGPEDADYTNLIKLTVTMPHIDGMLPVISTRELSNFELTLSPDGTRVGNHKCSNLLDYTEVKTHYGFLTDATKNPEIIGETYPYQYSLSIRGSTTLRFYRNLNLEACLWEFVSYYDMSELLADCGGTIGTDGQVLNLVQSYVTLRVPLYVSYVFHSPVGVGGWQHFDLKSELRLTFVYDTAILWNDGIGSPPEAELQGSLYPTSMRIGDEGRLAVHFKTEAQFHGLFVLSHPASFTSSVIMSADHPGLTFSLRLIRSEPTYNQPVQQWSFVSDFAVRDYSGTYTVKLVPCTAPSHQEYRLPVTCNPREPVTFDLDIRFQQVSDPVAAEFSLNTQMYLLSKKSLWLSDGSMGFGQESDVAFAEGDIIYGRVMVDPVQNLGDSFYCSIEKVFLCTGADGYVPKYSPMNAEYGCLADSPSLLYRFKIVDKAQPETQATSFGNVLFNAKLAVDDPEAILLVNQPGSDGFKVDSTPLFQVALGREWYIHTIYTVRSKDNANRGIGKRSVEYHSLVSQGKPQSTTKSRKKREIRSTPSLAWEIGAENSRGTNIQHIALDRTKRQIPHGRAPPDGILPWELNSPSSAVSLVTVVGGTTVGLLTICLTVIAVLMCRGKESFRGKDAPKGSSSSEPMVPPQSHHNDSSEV

Substance | effect of a mutation on the interaction (frem2_human FREM2) | effect of a mutation on the interaction (frem1_human FREM1)
FRAS1-related extracellular matrix protein 1 (Homo sapiens), Q5H8C1 L1324R | disrupting interaction strength | –
FRAS1-related extracellular matrix protein 1 (Homo sapiens), Q5H8C1 R649W | disrupting interaction strength | –
FRAS1-related extracellular matrix protein 2 (Homo sapiens), Q5SZK8 E1972K | – | disrupting interaction strength
FRAS1-related extracellular matrix protein 2 (Homo sapiens), Q5SZK8 R2167W | – | decreasing interaction strength

Source: IntAct's records for PubMed 29688405
